These results are taken from patent US20240270861A1.

Assay [1] addresses human BAFF-R (B cell-activating factor receptor) expressed on cells (human) (UniProt Q96RJ3). The assay can be described thus: cell-based or functional assay.
Assay [2] has the same target. The assay can be described thus: BAFF-biotin blocking, flow cytometry, hBAFF-R CHO cells; competitor BAFF-biotin.
The target of assay [3] is poly-specificity reagent (PSR): detergent solubilized CHO cell membrane proteins. Description: flow cytometry PSR assay: test article captured on protein A beads, biotinylated PSR detected with streptavidin-PE, anti-human Fc for expression; control panel without PSR (FIG. 71D) prints Q2 0.019. On the technique in general: Flow cytometry measures light scatter and fluorescence of single cells or particles in a stream.

Assay [4] shares this target. Description: flow cytometry PSR assay: test article on Protein A coated beads, biotinylated PSR, read-out with SA-PE.
For assay [5] the target is unchanged. Description: PSR assay: molecule on protein A beads, biotinylated PSR, SA-PE read out by flow cytometry; + PSR panel.
For assay [6] the target is unchanged. Description: flow cytometry PSR assay: test article captured on protein A beads, biotinylated PSR detected with streptavidin-PE, anti-human Fc for expression; control panel without PSR (FIG. 71C) prints Q2 0.020.

Substance “F3′ isotype control (F3′-palivizumab) (bispecific antibody)” had a KHYG-1-CD16a cytotoxicity on BJAB cells, Max killing (%) in assay [1] of 48%.
In turn, Human IgG1k (antibody) gave a Minimum (MFI) in assay [2] of 68000 MFI.
For “Ixekizumab (PSR positive control) (antibody)”, in assay [3], the events in quadrant Q2 (Expression-FITC positive, Binding-PE positive), + PSR amounted to 79.6%.
Regarding Ixekizumab (antibody), the percent of events in Q2 (Expression-FITC positive, Binding-PE positive), + PSR in assay [4] was determined as 79.6%.
Regarding Ixekuzumab (antibody), the % of events in quadrant Q2 (PSR binding+) in assay [5] was 27.1%.
Consider Rituximab (antibody), for which the percent of events in Q2 (Expression-FITC positive, Binding-PE positive), + PSR in assay [4] is 56.2%.
trastuzumab (antibody): the events in quadrant Q2 (Expression-FITC positive, Binding-PE positive), + PSR in assay [6] was determined as 0.067%. In addition, the percent of events in Q2 (Expression-FITC positive, Binding-PE positive), + PSR in assay [4] stood at 0.087%.
